Assay results: US20230058489A1, “COMBINATION COMPRISING A TIM-3 INHIBITOR AND A HYPOMETHYLATING AGENT FOR USE IN TREATING MYELODYSPLASTIC SYNDROME OR CHRONIC MYELOMONOCYTIC LEUKEMIA” (Novartis AG, priority 2020, published 2023)
Entries after “also recorded” stand apart in the source; their conditions may differ.

Assays:
[1] = tested on: hematological malignancies; experiment: Phase Ib study CPDR001X2105 (NCT03066648), MBG453/sabatolimab single agent or with decitabine or azacitidine, all disease cohorts; assay type: in vivo
Description: In study [CPDR001X2105], as of 26 Jul. […] The most frequently reported adverse event attributed to study treatment was a rash in two subjects (8%). All other adverse events attributed to study treatment were single occurrences. There were no DLTs during the first cycle. […] There were no DLTs during the first 2 cycles.
Study Design and Methods: This is a phase Ib, open-label, multicenter, dose-escalation study of sabatolimab+HMA (decitabine [Dec] or azacitidine [Aza]) in patients (pts) with AML or HR-MDS (NCT03066648; CPDR001X2105). Patients were adults with newly diagnosed (ND) or relapsed/refractory (R/R; ≥1 prior therapy) AML or IPSS-R high- or very high-risk MDS; patients with chronic myelomonocytic leukemia (CMML) were also eligible. Patients were HMA naive and ineligible for intensive chemotherapy. Escalating dose cohorts of IV sabatolimab examined were: 240 or 400 mg Q2W (D8, D22) or 800 mg Q4W (D8) combined with Dec (20 mg/m^2; IV D1-5) or Aza (75 mg/m^2; IV/SC D1-7) per 28-day cycle. Primary objectives included safety/tolerability; secondary objectives included preliminary efficacy and pharmacokinetics.

[2] = Pharmacokinetics of MBG453 in studies CMBG453X2101 and CPDR001X2105; assay type: in vivo, human
Protocol: At lower doses (at 80 mg and below for Q2W dosing or at 240 mg and below for Q4W dosing), the PK was nonlinear, with faster elimination at lower concentrations. PK appeared linear with an approximate proportional dose-exposure (AUC and Cmax) relationship at doses of 240 mg and above for Q2W dosing and at doses of 800 mg and above for Q4W dosing. […] The dose of 800 mg Q4W has similar AUCtau as 400 mg Q2W at the steady state.

[3] = tested on: TIM-3-overexpressing Raji cells; experiment: Antibody-dependent cellular phagocytosis (ADCP) by PMA-differentiated THP-1 cells, flow cytometry; assay type: cell-based, human; conditions: E:T ratio 1:5, 30-45 minutes, FIG. 2
Protocol: THP-1 effector cells (a human monocytic AML cell line) were differentiated into phagocytes by stimulation with 20 ng/ml phorbol 12-myristate 13-acetate (PMA) for two to three days at 37° C., 5% CO2. PMA-stimulated THP-1 cells were washed in FACS Buffer (PBS with 2 mM EDTA) in the flask and then detached by treatment with Accutase (Innovative Cell Technologies). The target TIM-3-overexpressing Raji cells were labelled with 5.5 μM CellTrace CFSE (ThermoFisherScientific) as per manufacturer's instructions. […] Co-cultures were incubated for 30-45 minutes at 37° C., 5% CO2. Phagocytosis was then stopped with a 4% Formaldehyde fixation (diluted from 16% stock, ThermoFisherScientific), and cells were stained with an APC-conjugated anti-CD11c antibody (BD Bioscience). ADCP was measured by a flow cytometry based assay on a BD FACS Canto II. Phagocytosis was evaluated as a percentage of the THP-1 cells double positive for CFSE (representing the phagocytosed Raji cell targets) and CD11c from the THP-1 (effector) population. […] Negative control IgG4 antibody is shown in triangles.

THP-1 AML cells = experiment: Co-culture of THP-1 cells with anti-CD3 activated PBMCs, Incucyte killing assay; assay type: cell-based, human; conditions: 1 μg/mL, THP-1 cells pre-treated with decitabine (250 or 500 nM, 5 days), FIG. 4
Protocol: THP-1 cells were plated in complete RPMI-1640 (Gibco) media (supplemented with 2 mM glutamine, 100 U/ml Pen-Strep, 10 mM HEPES, 1 mM NaPyr, and 10% fetal bovine serum (FBS)). Decitabine (250 or 500 nM; supplemented to media daily for five days) or DMSO control were added for a 5-day incubation at 37° C., 5% CO2. Two days after plating THP-1 cells, healthy human donor peripheral blood mononuclear cells (PBMCs; Medcor) were isolated from whole blood by centrifugation of sodium citrate CPT tubes at 1,800×g for 20 minutes. At the completion of the spin, the tube was inverted 10 times to mix the plasma and PBMC layers. Cells were washed in 2× volume of PBS/MACS Buffer (Miltenyi) and centrifuged at 250×g for 5 minutes. Supernatant was aspirated, and 1 mL of PBS/MACS Buffer was added following by pipetting to wash the cell pellet. 19 mL of PBS/MACS Buffer were added to wash, followed by a repeat of the centrifugation. Supernatant was aspirated, and the cell pellet was resuspended in 1 mL of complete media, followed by pipetting to a single cell suspension, and the volume was brought up to 10 mL with complete RPMI. 100 ng/mL anti-CD3 (eBioscience) was added to the media for a 48-hour stimulation at 37° C., 5% CO2. After 5 days culture with decitabine or DMSO, THP-1 cells were harvested and labeled with CellTracker™ Deep Red Dye (ThermoFisher) following manufacturer's instructions.

[4] = Phase I study CMBG453X2101, MBG453 single agent in solid tumor patients (safety); assay type: in vivo, human
Description: In study [CMBG453X2101], as of 25 Jul. […] There were no adverse events attributed to study treatment with an incidence>10%. The most frequently reported adverse events attributed to study treatment included fatigue (9%), followed by decreased appetite and nausea (4.5% each). There were no DLTs during the first cycle.

FcγRIIa (CD32a) = target: T1, FcγRIIa (CD32a) (Homo sapiens, UniProt P12318); experiment: Separate FcγRIIa engagement assay; assay type: cell-based
T1 sequence (P12318 34-317): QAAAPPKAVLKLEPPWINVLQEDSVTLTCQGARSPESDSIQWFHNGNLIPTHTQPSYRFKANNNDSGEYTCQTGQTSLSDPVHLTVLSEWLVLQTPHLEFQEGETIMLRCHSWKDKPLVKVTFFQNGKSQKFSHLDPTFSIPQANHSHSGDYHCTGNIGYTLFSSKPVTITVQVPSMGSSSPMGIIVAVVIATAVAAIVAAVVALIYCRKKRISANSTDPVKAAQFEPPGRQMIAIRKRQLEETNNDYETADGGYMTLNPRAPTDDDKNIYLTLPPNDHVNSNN

[5] = during the first cycle, single agent
[6] = MBG453 single agent, 133 subjects with solid tumors

## MBG453: high-affinity, ligand-blocking, humanized anti-TIM-3 IgG4 antibody, disclosed in WO2015/117002
[1]; MBG453 single agent, 26 subjects (two subjects)
  adverse event attributed to study treatment: rash: 8%
[1]; MBG453 single agent, 26 subjects, as of 26 Jul. 2019
  incidence of any adverse event attributed to study treatment: ≤ 10%
[1]; as of 26 Jul. 2019
  discontinuation of study treatment due to treatment-related AEs: No subjects discontinued
[1]; [5]
  DLTs: no DLTs
[2]; 240 mg and above for Q2W dosing, 800 mg and above for Q4W dosing
  PK linearity, dose-exposure (AUC and Cmax) relationship: linear
[2]; at 80 mg and below for Q2W dosing or at 240 mg and below for Q4W dosing
  PK linearity: nonlinear
[2]; steady state
  AUCtau of 800 mg Q4W compared with 400 mg Q2W: similar
[3]
  phagocytosis (percentage of THP-1 cells double positive for CFSE and CD11c): modest; also recorded: enhanced THP-1 cell phagocytosis of TIM-3+ Raji cells in a dose-dependent manner
THP-1 AML cells
  killing of THP-1 cells by anti-CD3 activated PBMCs: further enhanced
[4]; [6]
  adverse events attributed to study treatment: decreased appetite: 4.5%
  adverse events attributed to study treatment: nausea: 4.5%
  incidence of any adverse event attributed to study treatment: ≤ 10%
[4]; MBG453 single agent, 133 subjects with solid tumors, as of 25 Jul. 2019
  adverse events attributed to study treatment: fatigue: 9%
[4]; [5]
  DLTs: no DLTs
[4]; single agent
  discontinuation of study treatment due to treatment-related AEs: No subjects discontinued
FcγRIIa (CD32a)
  engagement of FcγRIIa (CD32a): did not engage
